Experimental data reported in US20250304644A1, “PEPTIDES TRIPLE AGONISTS OF GIP, GLP-1 AND GLP-2” (BAINAN BIOTECH APS, priority 2021, published 2025).
*1 amine or outer side, *2 acyl side, *3 side chain or, on linkers, in order; H or OH if unused. Where no end group is shown, it is not given here. Side-chain parts run from the residue outwards. The star is where a group is joined. C18 diacid = O=C(O)CCCCCCCCCCCCCCCCC(=O)*; γGlu = O=C(O)[C@H](CCC(=O)[*:2])N[*:1]; AEEA = NCCOCCOCC(=O)O

T1: human GIPR (glucose-dependent insulinotropic polypeptide receptor) (human, UniProt P48546 22-466)
T1 sequence (looked up): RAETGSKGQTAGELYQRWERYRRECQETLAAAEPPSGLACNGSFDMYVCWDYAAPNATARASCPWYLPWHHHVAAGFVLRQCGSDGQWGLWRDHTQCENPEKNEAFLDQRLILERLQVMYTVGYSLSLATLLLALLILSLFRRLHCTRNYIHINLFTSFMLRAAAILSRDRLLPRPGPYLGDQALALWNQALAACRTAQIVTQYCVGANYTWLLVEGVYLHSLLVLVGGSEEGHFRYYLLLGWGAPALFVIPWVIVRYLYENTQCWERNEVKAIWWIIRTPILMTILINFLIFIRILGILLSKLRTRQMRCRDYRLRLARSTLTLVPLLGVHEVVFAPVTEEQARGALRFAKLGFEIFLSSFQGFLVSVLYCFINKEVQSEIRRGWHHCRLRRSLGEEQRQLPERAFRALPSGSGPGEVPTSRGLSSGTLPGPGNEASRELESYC

T2: human GLP-2R (glucagon-like peptide-2 receptor) (human, UniProt O95838 1-553)
T2 sequence (looked up): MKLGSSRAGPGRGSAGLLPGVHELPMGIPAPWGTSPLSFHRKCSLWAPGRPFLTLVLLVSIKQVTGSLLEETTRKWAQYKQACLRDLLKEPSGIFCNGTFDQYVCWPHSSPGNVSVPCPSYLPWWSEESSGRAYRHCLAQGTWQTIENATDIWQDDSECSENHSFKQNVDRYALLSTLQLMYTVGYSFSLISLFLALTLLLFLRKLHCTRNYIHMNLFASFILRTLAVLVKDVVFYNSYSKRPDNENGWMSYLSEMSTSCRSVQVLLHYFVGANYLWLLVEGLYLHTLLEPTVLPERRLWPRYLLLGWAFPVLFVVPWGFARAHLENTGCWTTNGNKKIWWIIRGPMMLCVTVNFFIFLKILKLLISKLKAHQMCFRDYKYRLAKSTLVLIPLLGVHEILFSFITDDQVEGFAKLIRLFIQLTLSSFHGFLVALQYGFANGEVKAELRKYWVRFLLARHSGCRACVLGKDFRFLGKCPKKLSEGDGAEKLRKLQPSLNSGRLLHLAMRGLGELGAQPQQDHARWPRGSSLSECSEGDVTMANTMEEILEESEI

T3: Human N-terminally SNAP-tagged GIPR (human, UniProt P48546 22-466, SNAP tag labeled with Tag-Lite SNAP-Lumi4-Tb)
T3 sequence (looked up): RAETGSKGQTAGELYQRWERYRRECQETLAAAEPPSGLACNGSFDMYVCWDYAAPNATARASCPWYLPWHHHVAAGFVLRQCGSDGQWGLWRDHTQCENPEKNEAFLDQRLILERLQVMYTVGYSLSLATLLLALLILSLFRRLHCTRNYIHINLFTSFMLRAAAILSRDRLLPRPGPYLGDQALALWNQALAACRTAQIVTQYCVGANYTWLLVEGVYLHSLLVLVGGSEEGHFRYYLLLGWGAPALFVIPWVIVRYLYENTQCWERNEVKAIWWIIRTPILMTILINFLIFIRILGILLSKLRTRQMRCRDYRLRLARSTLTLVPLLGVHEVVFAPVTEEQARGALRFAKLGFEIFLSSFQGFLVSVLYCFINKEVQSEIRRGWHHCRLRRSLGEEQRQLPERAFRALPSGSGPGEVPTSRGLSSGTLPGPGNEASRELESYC

T4: human SNAP-tagged GLP-2R (human, UniProt O95838 1-553, SNAP tag labeled with Tag-Lite SNAP-Lumi4-Tb)
T4 sequence (looked up): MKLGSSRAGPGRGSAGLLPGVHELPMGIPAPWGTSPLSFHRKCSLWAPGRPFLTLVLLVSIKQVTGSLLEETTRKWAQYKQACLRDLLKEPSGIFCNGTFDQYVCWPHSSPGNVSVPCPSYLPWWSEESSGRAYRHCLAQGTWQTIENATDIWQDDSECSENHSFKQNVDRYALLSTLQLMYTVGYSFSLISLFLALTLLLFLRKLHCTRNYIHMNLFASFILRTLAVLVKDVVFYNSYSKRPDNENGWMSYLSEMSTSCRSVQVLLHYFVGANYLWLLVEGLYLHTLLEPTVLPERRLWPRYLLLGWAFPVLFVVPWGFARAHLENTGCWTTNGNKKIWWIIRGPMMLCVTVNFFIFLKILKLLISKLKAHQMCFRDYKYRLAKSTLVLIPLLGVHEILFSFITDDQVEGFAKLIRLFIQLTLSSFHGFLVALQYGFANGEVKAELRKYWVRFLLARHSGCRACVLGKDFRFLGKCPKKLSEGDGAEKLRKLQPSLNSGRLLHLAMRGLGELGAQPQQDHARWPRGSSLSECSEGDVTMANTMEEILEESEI


Assays:
Test in all cases: cell-based or functional assay
[1] = target: T1, human GIPR (glucose-dependent …)
[2] = target: T2, human GLP-2R (glucagon-like peptide-2 …)
[3] = target: human GLP-1R (glucagon-like peptide-1 receptor) (human, UniProt P43220 24-463)
[4] = target: T3, Human N-terminally SNAP-tagged GIPR
human SNAP-tagged GLP-2R = target: T4, human SNAP-tagged GLP-2R

Binder	EC50 (nM) GIPR [1] [nM]	Efficacy GIPR [1]	pEC50 GIPR [1]	EC50 (nM) GLP-2R [2] [nM]	Efficacy GLP-2R [2]	logEC50 GLP-2R [2]	EC50 (nM) GLP-1R [3] [nM]	Efficacy GLP-1R [3]	logEC50 GLP-1R [3]	Absolute hGIPR internalization (AUC) [4] [AUC]	Relative hGIPR internalization (%) [4] [%]	Absolute hGLP-2R internalization (AUC) (human SNAP-tagged GLP-2R)
HADGTFTSDYSTILDKK([AEEA-AEEA-γGlu-C18 diacid])AARDFINWLIQTKGKKNDWKHNITQ-OH [Compound 23]	7.08	82	8.2	3.5	95	8.5	0.05	105	10.3	1.2	3	
HADGSFSDEMNTILDNLAARDFINWLIQTKITD (ligand) [hGLP-2]												48.6
HADGTFTSDYSTILDKLAARDFINWLIQTKGKKNDWK([AEEA-AEEA-γGlu-C18 diacid])HNITQ-OH [Compound 25]	0.398	107	9.4	7.9	117	8.1	0.05	116	10.3	13.1	35	
